Results from patent US20230203158A1.

Key:
[1] = target: human TNFα (human) (UniProt P01375); experiment: cell-based or functional assay
[2] = target: IL-10 receptor of HEK-BLUE IL-10 cells (the cells express all the components of the IL-10 signaling pathway); experiment: cell-based or functional assay

human TNFα (human), sequence (P01375 77-233 limits assumed): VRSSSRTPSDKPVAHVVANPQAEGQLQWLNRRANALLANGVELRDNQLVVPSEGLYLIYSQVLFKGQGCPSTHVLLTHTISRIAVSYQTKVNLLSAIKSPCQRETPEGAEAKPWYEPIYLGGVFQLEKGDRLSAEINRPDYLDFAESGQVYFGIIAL

IC50 (nM, replicate 2), inhibition of TNFα signaling in HEK-BLUE TNFα cells [1] [nM]	EC50 (pM), HEK-BLUE IL-10 signaling assay (SEAP) [2] [pM]	Substance
0.07	–	Etanercept (PRO078) (Fc fusion)
–	21	recombinant human IL-10 (BioLegend #573204) (from UniProt P22301 19-178) (ligand)
